The source of these data is patent publication US20130183702.

The series has as its system T1, cholesterol-tagged, protease-sensitive polyacrylic acid block copolymer containing the peptide GSGRSAGC (SEQ ID NO: 20), embedded in polymer-caged liposomes (PCLs).
T1 sequence: GSGRSAGC

Regarding urokinase plasminogen activator (uPA), the “carboxyfluorescein release from PCLs (total fluorescent intensity), -uPA vs +uPA (25 ug/mL, fresh batch), second test” value is “They show very little difference in total intensity and the p value is 0.6617 between the two, indicating that they are not different”; the “carboxyfluorescein release from PCLs (total fluorescent intensity), no uPA vs 25 ug/mL uPA, first test” value was “there was very little difference between the no uPA sample and the uPA sample, indicating that the polymer caged liposome did not have the desired sensitivity to uPA (p=0.5173)”; the “carboxyfluorescein release from PCLs (total fluorescent intensity), no uPA vs renatured uPA, third test” value is “there is a difference between the no uPA sample and the uPA sample with the uPA sample being significantly higher (p value 0.0071)”; the “change in conductance (current vs. time) after adding 10^-11 mol urokinase to MgSO4-loaded PCLs” value was “A significant increase in conductance was observed due to the release of Mg^2+ and SO4^2- from the liposomes' hydrophilic interior”. Further, the “fluorescence of cyanine 7.0 released from PCLs after adding urokinase-type plasminogen activator, recorded every 5 min” value is recorded as “The highest peak was visible after 50 minutes of incubation time”.
